How the values were obtained:
Homo sapiens = experiment: Drug level in human assessed as retention time treated with 40 mg, po of scutellarin measured up to 20 hrs by mass defect filter chromatogram analysis; assay type: ADME, organism-based
[1] = substrate: O=c1cc(-c2ccc(O)cc2)oc2cc(O)c(O)c(O)c12; experiment: Drug metabolism assessed as human recombinant UGT1A3-mediated formation of scutellarein-7-O-glucuronide after 25 mins by HPLC/UV analysis; assay type: ADME
[2] = substrate: O=c1cc(-c2ccc(O)cc2)oc2cc(O)c(O)c(O)c12; experiment: Drug metabolism assessed as human recombinant UGT1A6-mediated formation of scutellarein-7-O-glucuronide after 25 mins by HPLC/UV analysis; assay type: ADME
[3] = substrate: O=c1cc(-c2ccc(O)cc2)oc2cc(O)c(O)c(O)c12; experiment: Drug metabolism assessed as human recombinant UGT1A7-mediated formation of scutellarein-7-O-glucuronide after 25 mins by HPLC/UV analysis; assay type: ADME
[4] = substrate: O=c1cc(-c2ccc(O)cc2)oc2cc(O)c(O)c(O)c12; experiment: Drug metabolism assessed as human recombinant UGT1A8-mediated formation of scutellarein-7-O-glucuronide after 25 mins by HPLC/UV analysis; assay type: ADME
[5] = substrate: O=c1cc(-c2ccc(O)cc2)oc2cc(O)c(O)c(O)c12; experiment: Drug metabolism assessed as human recombinant UGT1A9-mediated formation of scutellarein-6-O-glucuronide after 25 mins by HPLC/UV analysis; assay type: ADME
[6] = substrate: O=c1cc(-c2ccc(O)cc2)oc2cc(O)c(O)c(O)c12; experiment: Drug metabolism assessed as human recombinant UGT1A9-mediated formation of scutellarein-7-O-glucuronide after 25 mins by HPLC/UV analysis; assay type: ADME
[7] = substrate: O=c1cc(-c2ccc(O)cc2)oc2cc(O)c(O)c(O)c12; experiment: Drug metabolism assessed as human recombinant UGT1A10-mediated formation of scutellarein-6-O-glucuronide after 25 mins by HPLC/UV analysis; assay type: ADME
[8] = substrate: O=c1cc(-c2ccc(O)cc2)oc2cc(O)c(O)c(O)c12; experiment: Drug metabolism assessed as human recombinant UGT1A10-mediated formation of scutellarein-7-O-glucuronide after 25 mins by HPLC/UV analysis; assay type: ADME
[9] = substrate: O=c1cc(-c2ccc(O)cc2)oc2cc(O)c(O)c(O)c12; experiment: Drug metabolism assessed as human recombinant UGT2B7-mediated formation of scutellarein-6-O-glucuronide after 25 mins by HPLC/UV analysis; assay type: ADME
[10] = substrate: O=C(O)[C@H]1O[C@@H](Oc2c(O)cc3oc(-c4ccc(O)cc4)cc(=O)c3c2O)[C@H](O)[C@@H](O)[C@@H]1O; experiment: Drug uptake assessed as OATP2B1 (unknown origin)-mediated drug transport expressed in HEK293 cells after 7 mins by LC-MS/MS analysis; assay type: ADME, cell-based, Homo sapiens

O=C(O)[C@H]1O[C@@H](Oc2cc3oc(-c4ccc(O)cc4)cc(=O)c3c(O)c2O[C@@H]2O[C@H](C(=O)O)[C@@H](O)[C@H](O)[C@H]2O)[C@H](O)[C@@H](O)[C@@H]1O
Retention_time (Homo sapiens): 6.02 min

B1: UDP-glucuronosyltransferase 1A3 (Homo sapiens) (protein)
chain: MATGLQVPLPWLATGLLLLLSVQPWAESGKVLVVPIDGSHWLSMREVLRELHARGHQAVVLTPEVNMHIKEENFFTLTTYAISWTQDEFDRHVLGHTQLYFETEHFLKKFFRSMAMLNNMSLVYHRSCVELLHNEALIRHLNATSFDVVLTDPVNLCAAVLAKYLSIPTVFFLRNIPCDLDFKGTQCPNPSSYIPRLLTTNSDHMTFMQRVKNMLYPLALSYICHAFSAPYASLASELFQREVSVVDILSHASVWLFRGDFVMDYPRPIMPNMVFIGGINCANRKPLSQEFEAYINASGEHGIVVFSLGSMVSEIPEKKAMAIADALGKIPQTVLWRYTGTRPSNLANNTILVKWLPQNDLLGHPMTRAFITHAGSHGVYESICNGVPMVMMPLFGDQMDNAKRMETKGAGVTLNVLEMTSEDLENALKAVINDKSYKENIMRLSSLHKDRPVEPLDLAVFWVEFVMRHKGAPHLRPAAHDLTWYQYHSLDVIGFLLAVVLTVAFITFKCCAYGYRKCLGKKGRVKKAHKSKTH
Km [1]: 7.34 µM | Vmax [1]: 0.00178 µmol/min/mg | Vmax/Km [1]: 243 µL/min/mg

B2: UDP-glucuronosyltransferase 1A6 (Homo sapiens) (protein)
chain: MACLLRSFQRISAGVFFLALWGMVVGDKLLVVPQDGSHWLSMKDIVEVLSDRGHEIVVVVPEVNLLLKESKYYTRKIYPVPYDQEELKNRYQSFGNNHFAERSFLTAPQTEYRNNMIVIGLYFINCQSLLQDRDTLNFFKESKFDALFTDPALPCGVILAEYLGLPSVYLFRGFPCSLEHTFSRSPDPVSYIPRCYTKFSDHMTFSQRVANFLVNLLEPYLFYCLFSKYEELASAVLKRDVDIITLYQKVSVWLLRYDFVLEYPRPVMPNMVFIGGINCKKRKDLSQEFEAYINASGEHGIVVFSLGSMVSEIPEKKAMAIADALGKIPQTVLWRYTGTRPSNLANNTILVKWLPQNDLLGHPMTRAFITHAGSHGVYESICNGVPMVMMPLFGDQMDNAKRMETKGAGVTLNVLEMTSEDLENALKAVINDKSYKENIMRLSSLHKDRPVEPLDLAVFWVEFVMRHKGAPHLRPAAHDLTWYQYHSLDVIGFLLAVVLTVAFITFKCCAYGYRKCLGKKGRVKKAHKSKTH
Km [2]: 27 µM | Vmax [2]: 0.00167 µmol/min/mg | Vmax/Km [2]: 62 µL/min/mg

B3: UDP-glucuronosyltransferase 1A7 (Homo sapiens) (protein)
chain: MARAGWTGLLPLYVCLLLTCGFAKAGKLLVVPMDGSHWFTMQSVVEKLILRGHEVVVVMPEVSWQLGRSLNCTVKTYSTSYTLEDQDREFMVFADARWTAPLRSAFSLLTSSSNGIFDLFFSNCRSLFNDRKLVEYLKESCFDAVFLDPFDACGLIVAKYFSLPSVVFARGIFCHYLEEGAQCPAPLSYVPRLLLGFSDAMTFKERVWNHIMHLEEHLFCPYFFKNVLEIASEILQTPVTAYDLYSHTSIWLLRTDFVLEYPKPVMPNMIFIGGINCHQGKPVPMEFEAYINASGEHGIVVFSLGSMVSEIPEKKAMAIADALGKIPQTVLWRYTGTRPSNLANNTILVKWLPQNDLLGHPMTRAFITHAGSHGVYESICNGVPMVMMPLFGDQMDNAKRMETKGAGVTLNVLEMTSEDLENALKAVINDKSYKENIMRLSSLHKDRPVEPLDLAVFWVEFVMRHKGAPHLRPAAHDLTWYQYHSLDVIGFLLAVVLTVAFITFKCCAYGYRKCLGKKGRVKKAHKSKTH
Km [3]: 33.3 µM | Vmax [3]: 0.000795 µmol/min/mg | Vmax/Km [3]: 23.9 µL/min/mg

B4: UDP-glucuronosyltransferase 1A8 (Homo sapiens) (protein)
chain: MARTGWTSPIPLCVSLLLTCGFAEAGKLLVVPMDGSHWFTMQSVVEKLILRGHEVVVVMPEVSWQLGKSLNCTVKTYSTSYTLEDLDREFMDFADAQWKAQVRSLFSLFLSSSNGFFNLFFSHCRSLFNDRKLVEYLKESSFDAVFLDPFDACGLIVAKYFSLPSVVFARGIACHYLEEGAQCPAPLSYVPRILLGFSDAMTFKERVRNHIMHLEEHLFCQYFSKNALEIASEILQTPVTAYDLYSHTSIWLLRTDFVLDYPKPVMPNMIFIGGINCHQGKPLPMEFEAYINASGEHGIVVFSLGSMVSEIPEKKAMAIADALGKIPQTVLWRYTGTRPSNLANNTILVKWLPQNDLLGHPMTRAFITHAGSHGVYESICNGVPMVMMPLFGDQMDNAKRMETKGAGVTLNVLEMTSEDLENALKAVINDKSYKENIMRLSSLHKDRPVEPLDLAVFWVEFVMRHKGAPHLRPAAHDLTWYQYHSLDVIGFLLAVVLTVAFITFKCCAYGYRKCLGKKGRVKKAHKSKTH
Km [4]: 19 µM | Vmax [4]: 0.000673 µmol/min/mg | Vmax/Km [4]: 35.4 µL/min/mg

B5: UDP-glucuronosyltransferase 1A9 (Homo sapiens) (protein)
chain: MACTGWTSPLPLCVCLLLTCGFAEAGKLLVVPMDGSHWFTMRSVVEKLILRGHEVVVVMPEVSWQLGRSLNCTVKTYSTSYTLEDLDREFKAFAHAQWKAQVRSIYSLLMGSYNDIFDLFFSNCRSLFKDKKLVEYLKESSFDAVFLDPFDNCGLIVAKYFSLPSVVFARGILCHYLEEGAQCPAPLSYVPRILLGFSDAMTFKERVRNHIMHLEEHLLCHRFFKNALEIASEILQTPVTEYDLYSHTSIWLLRTDFVLDYPKPVMPNMIFIGGINCHQGKPLPMEFEAYINASGEHGIVVFSLGSMVSEIPEKKAMAIADALGKIPQTVLWRYTGTRPSNLANNTILVKWLPQNDLLGHPMTRAFITHAGSHGVYESICNGVPMVMMPLFGDQMDNAKRMETKGAGVTLNVLEMTSEDLENALKAVINDKSYKENIMRLSSLHKDRPVEPLDLAVFWVEFVMRHKGAPHLRPAAHDLTWYQYHSLDVIGFLLAVVLTVAFITFKCCAYGYRKCLGKKGRVKKAHKSKTH
Km [5]: 10.9 µM | Vmax [5]: 0.00167 µmol/min/mg | Vmax/Km [5]: 153 µL/min/mg | Km [6]: 5.49 µM | Vmax [6]: 0.00463 µmol/min/mg | Vmax/Km [6]: 843 µL/min/mg

B6: UDP-glucuronosyltransferase 1A10 (Homo sapiens) (protein)
chain: MARAGWTSPVPLCVCLLLTCGFAEAGKLLVVPMDGSHWFTMQSVVEKLILRGHEVVVVMPEVSWQLERSLNCTVKTYSTSYTLEDQNREFMVFAHAQWKAQAQSIFSLLMSSSSGFLDLFFSHCRSLFNDRKLVEYLKESSFDAVFLDPFDTCGLIVAKYFSLPSVVFTRGIFCHHLEEGAQCPAPLSYVPNDLLGFSDAMTFKERVWNHIVHLEDHLFCQYLFRNALEIASEILQTPVTAYDLYSHTSIWLLRTDFVLDYPKPVMPNMIFIGGINCHQGKPLPMEFEAYINASGEHGIVVFSLGSMVSEIPEKKAMAIADALGKIPQTVLWRYTGTRPSNLANNTILVKWLPQNDLLGHPMTRAFITHAGSHGVYESICNGVPMVMMPLFGDQMDNAKRMETKGAGVTLNVLEMTSEDLENALKAVINDKSYKENIMRLSSLHKDRPVEPLDLAVFWVEFVMRHKGAPHLRPAAHDLTWYQYHSLDVIGFLLAVVLTVAFITFKCCAYGYRKCLGKKGRVKKAHKSKTH
Km [7]: 2.74 µM | Vmax [7]: 3.8e-05 µmol/min/mg | Vmax/Km [7]: 13.7 µL/min/mg | Km [8]: 5.68 µM | Vmax [8]: 0.000318 µmol/min/mg | Vmax/Km [8]: 55.9 µL/min/mg

B7: UDP-glucuronosyltransferase 2B7 (Homo sapiens) (protein)
chain: MSVKWTSVILLIQLSFCFSSGNCGKVLVWAAEYSHWMNIKTILDELIQRGHEVTVLASSASILFDPNNSSALKIEIYPTSLTKTELENFIMQQIKRWSDLPKDTFWLYFSQVQEIMSIFGDITRKFCKDVVSNKKFMKKVQESRFDVIFADAIFPCSELLAELFNIPFVYSLSFSPGYTFEKHSGGFIFPPSYVPVVMSELTDQMTFMERVKNMIYVLYFDFWFEIFDMKKWDQFYSEVLGRPTTLSETMGKADVWLIRNSWNFQFPYPLLPNVDFVGGLHCKPAKPLPKEMEDFVQSSGENGVVVFSLGSMVSNMTEERANVIASALAQIPQKVLWRFDGNKPDTLGLNTRLYKWIPQNDLLGHPKTRAFITHGGANGIYEAIYHGIPMVGIPLFADQPDNIAHMKARGAAVRVDFNTMSSTDLLNALKRVINDPSYKENVMKLSRIQHDQPVKPLDRAVFWIEFVMRHKGAKHLRVAAHDLTWFQYHSLDVIGFLLVCVATVIFIVTKCCLFCFWKFARKAKKGKND
Km [9]: 11.5 µM | Vmax [9]: 8.9e-05 µmol/min/mg | Vmax/Km [9]: 7.74 µL/min/mg

B8: Solute carrier organic anion transporter family member 2B1 (Homo sapiens) (protein)
chain: MGPRIGPAGEVPQVPDKETKATMGTENTPGGKASPDPQDVRPSVFHNIKLFVLCHSLLQLAQLMISGYLKSSISTVEKRFGLSSQTSGLLASFNEVGNTALIVFVSYFGSRVHRPRMIGYGAILVALAGLLMTLPHFISEPYRYDNTSPEDMPQDFKASLCLPTTSAPASAPSNGNCSSYTETQHLSVVGIMFVAQTLLGVGGVPIQPFGISYIDDFAHNSNSPLYLGILFAVTMMGPGLAFGLGSLMLRLYVDINQMPEGGISLTIKDPRWVGAWWLGFLIAAGAVALAAIPYFFFPKEMPKEKRELQFRRKVLAVTDSPARKGKDSPSKQSPGESTKKQDGLVQIAPNLTVIQFIKVFPRVLLQTLRHPIFLLVVLSQVCLSSMAAGMATFLPKFLERQFSITASYANLLIGCLSFPSVIVGIVVGGVLVKRLHLGPVGCGALCLLGMLLCLFFSLPLFFIGCSSHQIAGITHQTSAHPGLELSPSCMEACSCPLDGFNPVCDPSTRVEYITPCHAGCSSWVVQDALDNSQVFYTNCSCVVEGNPVLAGSCDSTCSHLVVPFLLLVSLGSALACLTHTPSFMLILRGVKKEDKTLAVGIQFMFLRILAWMPSPVIHGSAIDTTCVHWALSCGRRAVCRYYNNDLLRNRFIGLQFFFKTGSVICFALVLAVLRQQDKEARTKESRSSPAVEQQLLVSGPGKKPEDSRV
Km [10]: 1.77 µM

Reference: ChEMBL document CHEMBL3526031, “Mechanistic studies on the absorption and disposition of scutellarin in humans: selective OATP2B1-mediated hepatic uptake is a likely key determinant for its unique pharmacokinetic characteristics” (Drug Metab Dispos, 2012)
